Like-named read-outs stand apart in the source and are kept apart here.
T1: HIV-1 Rev (clone BH10) (HIV-1 (isolate BH10), UniProt P04616 1-116)
T1 construct: mature; also called full-length Rev; recombinant HIV-1 Rev
T1 sequence: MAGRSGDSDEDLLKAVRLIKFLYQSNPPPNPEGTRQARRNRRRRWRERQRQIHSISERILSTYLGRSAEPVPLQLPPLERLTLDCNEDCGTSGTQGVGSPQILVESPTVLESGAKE


Experiments:
HIV-1 Rev (clone BH10) [1] = molecular target: T1, HIV-1 Rev (clone BH10); experiment: densitometry of Coomassie-stained SDS-PAGE of the Ni-purified complex
HIV-1 Rev (clone BH10) [2] = molecular target: T1, HIV-1 Rev (clone BH10); experiment: SPR (Biacore X), Rev immobilized on CM5 chip, Fab as analyte, Kd=kd/ka
HIV-1 Rev (clone BH10) [3] = molecular target: T1, HIV-1 Rev (clone BH10); experiment: SPR (Biacore X), Rev immobilized on CM5 chip, Fab as analyte, 1:1 Langmuir global fit
HIV-1 Rev (clone BH10) [4] = molecular target: T1, HIV-1 Rev (clone BH10)
[5] = molecular target: the molecule itself; experiment: sedimentation equilibrium ultracentrifugation, gradient fitted as a monomer-dimer system (self-association of the Fab/Rev complex); self-association of the 1:1 Fab/Rev complex, monomer-dimer fit of sedimentation equilibrium

Binder | molar ratio in the purified complex (HIV-1 Rev (clone BH10) [1]) | Kd (HIV-1 Rev (clone BH10) [2]) | koff (HIV-1 Rev (clone BH10) [3]) | kon (HIV-1 Rev (clone BH10) [3]) | koff (HIV-1 Rev (clone BH10) [4]) | kon (HIV-1 Rev (clone BH10) [4]) | Kd [5]
scFv SJS-R1 (mature SJS-R1 scFv) (scFv, also called anti-Rev scFv; Rev scFv) scFv: AELVMTQTPSSVSEPVGGTVTIKCQASQSISSWLSWYQQKPGQPPKLLIYDASNLASGVPSRFMGSGSGTEYTLTISGVQREDAATYYCLGGYPAASYRTAFGGGTELEIIGGSSRSSSSGGGGSGGGGQEQLVESGGRLVTPGTALTLTCKVSGFSLSGFWLNWVRQAPGKGLEWVGAIYRGSGSEWYASWAKGRFTISDTSTTVTLKLTSPTTEDTATYFCAADTTDNGYFTIWGPGTLVTVSSHHHHHH | 0.87 mol Rev per mol scFv | – | – | – | – | – | –
Fab SJS-R1 (chimeric rabbit/human anti-Rev Fab) (Fab, V domains shown, also called SJS-R1 Fab; Rev Fab SJS-R1) VH: QEQLVESGGRLVTPGTALTLTCKVSGFSLSGFWLNWVRQAPGKGLEWVGAIYRGSGSEWYASWAKGRFTISDTSTTVTLKLTSPTTEDTATYFCAADTTDNGYFTIWGPGTLVTVSS VL: ELVMTQTPSSVSEPVGGTVTIKCQASQSISSWLSWYQQKPGQPPKLLIYDASNLASGVPSRFMGSGSGTEYTLTISGVQREDAATYYCLGGYPAASYRTAFGGGTELEIIR | 0.9 mol Rev per mol Fab | ~0.04 nM | 8e-06 s⁻¹ | 220000 M⁻¹ s⁻¹ | 8.3e-06 s⁻¹ | 228000 M⁻¹ s⁻¹ | –
Fab/Rev complex (1:1 complex of Fab SJS-R1 and HIV-1 Rev) (other, mature; also called Fab/Rev immune complex) light: ELVMTQTPSSVSEPVGGTVTIKCQASQSISSWLSWYQQKPGQPPKLLIYDASNLASGVPSRFMGSGSGTEYTLTISGVQREDAATYYCLGGYPAASYRTAFGGGTELEIIRTVAAPSVFIFPPSDEQLKSGTASVVCLLNNFYPREAKVQWKVDNALQSGNSQESVTEQDSKDSTYSLSSTLTLSKADYEKHKVYACEVTHQGLSSPVTKSFNRGEC heavy: QEQLVESGGRLVTPGTALTLTCKVSGFSLSGFWLNWVRQAPGKGLEWVGAIYRGSGSEWYASWAKGRFTISDTSTTVTLKLTSPTTEDTATYFCAADTTDNGYFTIWGPGTLVTVSSASTKGPSVFPLAPSAKSTSGGTAALGCLVKDYFPEPVTVSWNSGALTSGVHTFPAVLQSSGLYSLSSVVTVPSSSLGTQTYICNVNHKPSNTKVDKKAEPKSCDKTRGHHHHHH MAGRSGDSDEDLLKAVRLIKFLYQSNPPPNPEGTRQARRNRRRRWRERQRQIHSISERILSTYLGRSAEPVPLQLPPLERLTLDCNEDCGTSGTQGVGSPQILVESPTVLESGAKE | – | – | – | – | – | – | ~100 µM

Reference: patent US20120201811A1 (US Dept. of Health and Human Services, published 2012)
